In publication PMC9392717 one finds binding signal (fold vs L32-CM6) data, which are given here for one substance.

The data set deals with His/Xpress-Gemin5 (pcDNA3Xpress-Gemin5). The data set is described as follows: pull-down (UV-irradiated HEK293 cells, Ni-NTA, RT-qPCR). As to conditions: EMSA: RNA folded in 100 mM HEPES pH 8.0, 100 mM NaCl, 5.25 mM MgCl2, 37 C; binding in 40 mM Tris-HCl pH 7.5, 250 mM NaCl, 0.1% (w/v) bME, 15 min, room …. (In EMSA bound probe runs differently from free probe, usually more slowly.)

The substance L32-WT-luc mRNA (5'TOP) had a binding signal (fold vs L32-CM6) of 5.
